US20240269676A1

What was measured:
[1] = biological target: gp100 antigen presented on the surface of B16F10 (gp100+) mouse melanoma cells treated with 1 µM hgp100 peptide (human) (UniProt P40967); experiment: microfluidic shear detachment of primary mouse T cells from hgp100-pulsed B16F10 monolayer
[2] = biological target: gp100 antigen presented on the surface of B16F10 (gp100+) mouse melanoma cells treated with 1 µM hgp100 peptide (human) (UniProt P40967); experiment: cell-based or functional assay

percent of T cells remaining bound at 1.9 Pa [1]: 19.4%
IFN-γ secretion (ELISA of overnight T cell-B16F10 co-culture media) [2]: 2120 pg/mL
Sequence: T cell receptor of TCR-transgenic Thy1.1+ pmel-1 (Pmel) mouse T cells
